Test results published in patent publication US11883434B2, “Extracellular vesicles and methods of using” (NUtech Ventures, priority 2017, dated 2024).
Where two headings read alike, the source gives them in different places.

Experiments:
Format in all cases: cell-based
[1] = system: human small intestinal cells (FHs cells); experiment: Uptake of milk exosomes into FH cells (protease, glycosidase, lectin, sonication)
[2] = system: human colon carcinoma Caco-2 cells; design: exosome uptake: dose or concentration left out as unconfirmed
Protocol: (§1) Caco-2 cells and IEC-6 cells were seeded at a density of 20,000 and 7000 cells/well, respectively, in 96-well plates, and allowed to adhere for 48 h, when cells were 75% confluent. The exosomes were labeled with the fluorophore, FM 4-64 (Molecular Probes). One microliter of a stock solution of FM 4-64 (5.9 mmol/L) was added to 1 mL of exosome suspension and incubated for 15 min at 37° C., and excess FM 4-64 was removed by ultracentrifugation at 120,000 3 g at 4° C. for 90 min. Transport studies were conducted using FM4-64-labeled exosomes using 3-110 mg of exosomal protein/well (Caco-2 cells) or 27-652 mg of exosomal protein/well (IEC-6 cells) and incubating cells for various periods of time to assess saturation kinetics; blanks were created using solvent. Assays were calibrated by quantifying the fluorescence of a known mass of exosomes labeled with FM 4-64. Exosome uptake was analyzed by measuring the cell fluorescence at 515 (excitation) and 640 nm (emission) using a Biotek FLx800 plate reader (BioTek Instru-ments). Fluorescence readings were corrected for cell autofluorescence by subtracting signals measured in cells incubated with exosome-depleted media. Transport kinetics was modeled using the Michaelis-Menten equation and nonlinear regression; modeling was conducted using GraphPad Prism 6.0 (GraphPad Software). In Caco-2 cells, exosome uptake was linear for up to 120 min if transport was measured using nonsaturating substrate concentrations (FIG. 33A): y=0.0012x+0.014 (r2=0.97; P<0.05). In IEC-6 cells exosome uptake was linear for only up to 60 min if transport was measured using nonsaturating substrate concentrations (FIG. 33B): y=0.0033x+0.033 (r2=0.75; P<0.05). Subsequent transport studies were conducted using incubation times of 8 hours for Caco-2 cells (FIG. 34B). Transport of milk exosome uptake was also studied in human umbilical vein endothelial cells (HUVECs) human small intestinal cells (FHs cells).
In both mammalian cells, the uptake of bovine milk exosomes was mediated by saturable transport mechanisms. Transport kinetics was modeled using the Michaelis-Menten equation. Exosome uptake was analyzed by measuring the cell fluorescence at 515 (excitation) and 640 nm (emission) using a Biotek FLx800 plate reader (BioTek Instruments) as previously described above. […] When the incubation temperature was decreased from 37° C. to 4° C., the transport rate decreased from 100%+56% to 54%+13% using a substrate concentration of 55.5 μg exosomal protein/200 μL in Caco-2 cells (P<0.05; n=3). Likewise, when the incubation temperature was decreased from 37° C. to 4° C., the transport rate decreased from 100%+11% to 44%+25% using a substrate concentration of 153 μg exosomal protein/200 μL in IEC-6 cells (P<0.05; n=3). Subsequent transport studies were conducted using substrate concentrations of 55 μg/200 mL and 153 μg/200 mL in Caco-2 cells and IEC-6 cells, respectively. […] (N=3; p<0.05). […] FIGS. 37A and 37B show saturation kinetics of milk exosome uptake in human small intestinal cells (FHs cells).
To remove surface protein from milk exosomes, the exosomes were subjected to various proteases, including trypsin, proteinase K, AspN, GluC, ArgC. […] Following protease treatment, the exosomes were subject to ultracentrifugation. The supernatant containing the enzyme cleaved surface peptides were identified using LC-MS/MS using LC/MS-MS and Mascot, and glycoproteins were identified using SwissProt. One way Anova and Bonferroni's Multiple comparison was used to test for statistical significance. The pellet containing the exosomes with its surface proteins removed was resuspended in 1×PBS and used for the transport studies shown in FIGS. 40-43.
The uptake of bovine milk exosomes into human and rat intestinal cells depended on surface proteins in both exosomes and cells. Exosomes were treated with proteases as described above and depicted in FIG. 39. […]

[3] = system: rat primary small intestinal IEC-6 cells; experiment: Uptake of FM4-64-labeled milk exosomes into IEC-6 cells; details: exosomes treated with 0.105 mMol/L trypsin for 30 mins
Protocol: as §1, with “Transport studies were conducted using FM4-64-labeled exosomes using 3-110 mg of exosomal protein/well (Caco-2 cells) or 27-652 mg of exosomal protein/well (IEC-6 cells) and incubating cells for various periods of time to assess saturation kinetics; blanks were created using solvent.” left out, “Transport kinetics was modeled using the Michaelis-Menten equation and nonlinear regression; modeling was conducted using GraphPad Prism 6.0 (GraphPad Software).” left out, “Subsequent transport studies were conducted using incubation times of 8 hours for Caco-2 cells (FIG. 34B). Transport of milk exosome uptake was also studied in human umbilical vein endothelial cells (HUVECs) human small intestinal cells (FHs cells).” left out

[4] = system: human umbilical vein endothelial cells (HUVEC); experiment: Uptake of fluorophore-labeled milk exosomes into HUVECs; details: exosomal surface proteins removed with proteinase K, HUVEC

B1: PNA: Lectin binding Galβ1-3GalNAcα1-Ser/Thr (protein, UniProt P02872 24-273, looked up)
Galactose-binding lectin: AETVSFNFNSFSEGNPAINFQGDVTVLSNGNIQLTNLNKVNSVGRVLYAMPVRIWSSATGNVASFLTSFSFEMKDIKDYDPADGIIFFIAPEDTQIPAGSIGGGTLGVSDTKGAGHFVGVEFDTYSNSEYNDPPTDHVGIDVNSVDSVKTVPWNSVSGAVVKVTVIYDSSTKTLSVAVTNDNGDITTIAQVVDLKAKLPERVKFGFSASGSLGGRQIHLIRSWSFTSTLITTTRRSIDNNEKKIMNMASA
effect on exosome uptake in FH cells ([1]; FH cells treated with the labelled agent): decreases the uptake
effect on exosome uptake in FH cells ([1]; exosomes treated with the labelled agent): decreases the uptake

B2: trypsin: Serine protease cleaving at lysine or arginine; applied to exosomes or cells (protein, UniProt P00761 9-231, looked up)
Trypsin: IVGGYTCAANSIPYQVSLNSGSHFCGGSLINSQWVVSAAHCYKSRIQVRLGEHNIDVLEGNEQFINAAKIITHPNFNGNTLDNDIMLIKLSSPATLNSRVATVSLPRSCAAAGTECLISGWGNTKSSGSSYPSLLQCLKAPVLSDSSCKSSYPGQITGNMICVGFLEGGKDSCQGDSGGPVVCNGQLQGIVSWGYGCAQKNKPGVYTKVCNYVNWIQQTIAAN
effect on exosome uptake in Caco-2 cells [2]: significant decrease in exosome transport
transport rates (Vmax) ([2]; exosomes treated with the labelled protease, intestinal transport): 40±0.6 arbitrary units
exosome uptake [3]: 82%±8%

B3: Arg-C: Cysteine protease cleaving at arginine and lysine (protein, UniProt P09870 51-181; P09870 191-526, looked up)
Clostripain light chain: NKNQKVTIMYYCDADNNLEGSLLNDIEEMKTGYKDSPNLNLIALVDRSPRYSSDEKVLGEDFSDTRLYKIEHNKANRLDGKNEFPEISTTSKYEANMGDPEVLKKFIDYCKSNYEADKYVLIMANHGGGAR
Clostripain heavy chain: AICWDDSNLDKNGEADCLYMGEISDHLTEKQSVDLLAFDACLMGTAEVAYQYRPGNGGFSADTLVASSPVVWGPGFKYDKIFDRIKAGGGTNNEDDLTLGGKEQNFDPATITNEQLGALFVEEQRDSTHANGRYDQHLSFYDLKKAESVKRAIDNLAVNLSNENKKSEIEKLRGSGIHTDLMHYFDEYSEGEWVEYPYFDVYDLCEKINKSENFSSKTKDLASNAMNKLNEMIVYSFGDPSNNFKEGKNGLSIFLPNGDKKYSTYYTSTKIPHWTMQSWYNSIDTVKYGLNPYGKLSWCKDGQDPEINKVGNWFELLDSWFDKTNDVTGGVNHYQW
effect on exosome uptake in Caco-2 cells [2]: significant decrease in exosome transport

B4: proteinase K: Non-specific protease used to remove surface proteins from exosomes or cells (protein, UniProt P06873 106-384, looked up)
Proteinase K: AAQTNAPWGLARISSTSPGTSTYYYDESAGQGSCVYVIDTGIEASHPEFEGRAQMVKTYYYSSRDGNGHGTHCAGTVGSRTYGVAKKTQLFGVKVLDDNGSGQYSTIIAGMDFVASDKNNRNCPKGVVASLSLGGGYSSSVNSAAARLQSSGVMVAVAAGNNNADARNYSPASEPSVCTVGASDRYDRRSSFSNYGSVLDIFGPGTSILSTWIGGSTRSISGTSMATPHVAGLAAYLMTLGKTTAASACRYIADTANKGDLSNIPFGTVNLLAYNNYQA
exosome uptake ([2]; CaCo2 cells treated with proteinase K): 18%±16%
exosome uptake ([2]; exosomes treated with proteinase K): 32%±25%
decrease of exosome uptake compared with controls ([2]; removal of exosome and cell surface proteins, inhibition of endocytosis/vesicle trafficking, or of glycoprotein binding): 61-85%
exosome uptake [4]: 50 % of controls
